Reference: publication PMC12802937 (Nucleic Acids Research, 2026)
Changes are numbered by the printed parent chain.

Assays:
Conditions in all cases: both partners purified
[1] = molecular target: T1, Bre1-LR (Bre1 residues 227–700, LBD and RING domains), 6× histidine tag (budding yeast, UniProt Q07457 227-700); experiment: ITC; Lge1-CT (50–60 μM) injected into Bre1-LR (15 μM); 25°C, 20 mM TRIS (pH 7.5), 300 mM sodium chloride
T1 construct: two Bre1 polypeptides form the dimeric coiled-coils of the LBD in the crystal structure; also called WT; source: E. coli BL21 Rosetta (DE3), purified (Ni-NTA, heparin, gel filtration)
T1 sequence (looked up): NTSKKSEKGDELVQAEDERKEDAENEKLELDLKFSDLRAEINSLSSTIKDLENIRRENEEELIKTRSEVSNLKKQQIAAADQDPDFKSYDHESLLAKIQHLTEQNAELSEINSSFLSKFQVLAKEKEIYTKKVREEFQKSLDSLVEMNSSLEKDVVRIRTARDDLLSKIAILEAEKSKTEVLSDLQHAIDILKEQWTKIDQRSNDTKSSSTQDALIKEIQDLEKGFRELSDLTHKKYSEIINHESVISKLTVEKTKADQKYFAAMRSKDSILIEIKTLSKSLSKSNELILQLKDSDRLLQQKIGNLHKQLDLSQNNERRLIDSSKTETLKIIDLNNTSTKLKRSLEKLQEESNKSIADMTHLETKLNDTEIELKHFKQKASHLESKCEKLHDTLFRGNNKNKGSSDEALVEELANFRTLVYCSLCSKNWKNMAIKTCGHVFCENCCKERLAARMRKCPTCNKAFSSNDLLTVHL

Bre1-LR K352E = molecular target: T2, Bre1-LR K352E (budding yeast, UniProt Q07457 227-700, K352E); experiment: ITC; Lge1-CT (50–60 μM) injected into Bre1-LR (15 μM); 25°C, 20 mM TRIS (pH 7.5), 200 mM sodium chloride
T2 construct: source: E. coli BL21 Rosetta (DE3), purified (Ni-NTA, heparin, gel filtration)
T2 sequence (looked up): T1 sequence (looked up) with K126E

Bre1-LR A489N = molecular target: T3, Bre1-LR A489N (budding yeast, UniProt Q07457 227-700, A489N); experiment: as above
T3 construct: source: E. coli BL21 Rosetta (DE3), purified (Ni-NTA, heparin, gel filtration)
T3 sequence (looked up): T1 sequence (looked up) with A263N

B1: Lge1-CT (Lge1 residues 261–332), intein-chitin binding domain (CBD) tag construct (domain or fragment, budding yeast, UniProt Q02796 261-332, looked up)
chain: KNVKKTNNTESECEKAREVFKESDSIDSALEELNLKINSNELELRLLNNQCDKHALNIQLTQEKLDSLLLMQ
notes: Lge1, budding yeast, residues 261-332; residues 268–331 resolved in the electron density; the intein-CBD tag is named on the protein in the pull-down; also called intein-CBD-fused Lge1-CT; intein-CBD-tagged Lge1-CT; source: E. coli BL21 Rosetta (DE3): cleared cell extract on chitin resin (pull-down); purified (chitin, heparin, gel filtration) for ITC and SPR; co-purified with Bre1-LR for the …
Kd [1]: 2.7 ± 1.7 nM | dH [1]: -38.8 ± 0.6 kcal/mol | stoichiometry N [1]: 0.318 ± 0.002 | Kd (Bre1-LR K352E): 176 ± 45 nM | dH (Bre1-LR K352E): -22.9 ± 1.3 kcal/mol | stoichiometry N (Bre1-LR K352E): 0.432 ± 0.011 | Kd (Bre1-LR A489N): 154 ± 55 nM | dH (Bre1-LR A489N): -52.1 ± 3.6 kcal/mol | stoichiometry N (Bre1-LR A489N): 0.375 ± 0.012
